In patent US9757471B2, “Protozoan variant-specific surface proteins (VSP) as carriers for oral drug delivery” (priority 2012, dated 2017):
Entries after “also recorded” stand apart in the source; their conditions may differ.

Experiments:
[1] = assay type: physicochemical; settings: in the presence of VSP; no degradation after incubation at pH 2
Description: To assess in vitro the capacity of VSP carriers to protect IL-2 from degradation, the capacity of a VSP carrier (e.g., recombinant VSP1267) to protect human IL-2 from conditions similar to those present in the GIT was evaluated. The capacity of the VSP to protect IL-2 from degradation caused by extreme pHs or by enzymatic proteolysis (e.g., by trypsin and/or pancreatine) was assayed using the methods described in the Examples above.
IL-2 alone or mixed with VSP carrier was incubated at different pHs or with different concentration of proteolytic enzymes such as trypsin. The presence of IL-2 after the pH and proteolyitc enzyme challenges was detected using Coomassie stain of SDS-PAGE gels.

[2] = assay type: physicochemical
Description: (§1) To evaluate in vitro the capacity of a VSP carrier to protect bioactive peptides from degradation, we evaluated the capacity of recombinant VSP1267 to protect human growth hormone (Somatotropin, hGH) (Biosidus, Argentina), an 191 amino acids long protein, from conditions similar to those present in the GIT. Similar to the previous analysis performed with the VSPs alone, the capacity of the VSP to protect hGH from degradation caused by extreme pHs or by enzymatic proteolysis was assayed.
The anti-hGH monoclonal antibody was subsequently used to determine the degree of resistance of hGH to different pHs. hGH was incubated at different pHs (1.6, 2.0, 3.8, 5.0, 5.8, 7.0, 8.0, 9.0, 10.0, and 11.0) for 90 minutes.

[3] = tested on: trypsin; test: hGH stability to trypsin, without or with VSP carrier (Western blot, silver staining); assay type: in vitro ADME
Description: as §1
hGH was also treated for 90 min at 37° C. with several concentrations of trypsin (0, 100, 150, 200, and 500 μg/mL). […] This protective effect was observed up to a 150 μg/mL trypsin concentration.

[4] = Serum hGH levels in mice after oral administration of hGH alone or with VSP carrier; assay type: in vivo; settings: hGH alone, oral 50 to 800 μg, female Balb/c mice
Description: hGH serum levels were tested after oral administration, evaluating different doses and measurement times, to determine the best dose for combination with the VSP carrier VSP1267 (FIG. 11A). As in previous experiments, female Balb/c mice, 7 weeks old, were left without food intake for 2 hours and then received the doses indicated in […] (i.e., 50, 100, 200, 400 and 800 μg of hGH). In a parallel experiment, hGH was administered subcutaneously (FIG. 11A, inset). […] Thus, a direct relationship between absorption and these variables (time and concentration) could not be determined.

[5] = tested on: trypsin; assay type: in vitro ADME; settings: hGH combined with chimeric VSP protein (SEQ ID NO: 589) derived from T. thermophila and G. intestinalis
Text: (§2) To determine if VSP-like proteins retain the Giardia VSP extracellular domain properties, and therefore can be used as VSP carriers or as components of chimeric VSP proteins, a DNA fragment of a Tetrahymena thermophila VSP-like protein encoding a VSP domain (TTHERM_00826790 hypothetical protein; SEQ ID NO: 590) was modified using stander molecular biology techniques to generate a chimeric VSP. The chimeric VSP protein (SEQ ID NO: 589) comprised the sequences encoding the signal peptide (SEQ ID NO: 591) of Giardia intestinalis VSP1267 and a His6 purification tag fused respectively to the amino terminus and carboxy terminus of the sequence of a VSP domain (SEQ ID NO: 592) located between amino acid positions 977 and 1465 of the VSP-like protein from Tetrahymena (SEQ ID NO: 590).
(§3) The chimeric VSP was cloned into a bacmid for expression in Sf9 insect cells. Once expressed and secreted to the culture supernatant, the chimeric VSP protein was purified on a Nickel column as described in Example 2.
(§4) The chimeric VSP protein was used to verify the stability of hGH to pH and trypsin sensitivity.

[6] = assay type: physicochemical; settings: hGH combined with chimeric VSP protein (SEQ ID NO: 589) derived from T. thermophila and G. intestinalis
Text: as §2, §3, §4

[7] = pH resistance assay of VSPs on Giardia trophozoites (immunofluorescence); assay type: physicochemical; settings: trophozoites in RPMI, pH 1 to pH 10, 90 minutes, immunofluorescence microscopy
Description: To determine whether VSPs are resistant to variable pH and to proteolytic digestion, two different Giardia isolates (clonal trophozoite populations) were treated with trypsin and with variable pH and the effect of those conditions on the VSP expressed by each isolate were monitored using immunofluorescence assays.
For the pH resistance assay. Giardia parasites were resuspended in RPMI cell culture medium at variable pHs, from pH 1 to pH 10. in 1 pH unit increments (only pH 1, 3, 5 and 10 are shown in FIG. 2B). Giardia parasites were kept at the different pHs for 90 minutes, washed, and then incubated with the corresponding monoclonal antibody.

[8] = tested on: trypsin; test: Western blot of VSPs after trophozoite trypsinization; assay type: in vitro ADME; settings: trophozoites, trypsin 200 μg/mL and 2 mg/mL, 90 min at 37° C., PBS pH 7.4, Western blot
Description: Giardia parasite clones WB-9B10, WB-1267 and GS-H7 (expressing, respectively, the VSP9B10, VSP1267 and VSPH7 VSPs) were resuspended in PBS at pH 7.4 and treated for 90 min at 37° C. with variable concentrations of trypsin (200 μg/mL and 2 mg/mL). Then, the parasites were lysed and equivalent protein amounts were applied to each lane in the SDS-PAGE gels.

Molecule: IL-10: human interleukin-10, anti-inflammatory cytokine
- resistance to low pH [1]: resistant

Molecule: Somatotropin [hGH]
- change of hGH degradation levels with VSP carrier at different pHs [2]: no significant changes
- protection of hGH from trypsin degradation ([3]; VSP carrier added at 3:1 VSP/hGH (1:3 hGH to VSP) ratio): able to protect hGH from trypsin degradation; also recorded: protects hGH from trypsin degradation
- hGH degradation by trypsin ([3]; hGH alone, 90 min at 37° C., trypsin 100 to 500 μg/mL): rapidly degraded even at the lowest protease concentrations; also recorded: completely proteolyzed
- oral absorption of hGH (serum levels) compared with subcutaneous [4]: much lower levels than subcutaneously absorption
- variability of oral absorption regarding times and amounts [4]: highly variable
- protection of hGH from degradation by trypsin [5]: able to protect hGH from degradation
- protection of hGH from degradation at low pH [6]: able to protect hGH from degradation

B1: VSP9B10: Giardia variant-specific surface protein of the WB isolate, clone WB-9B10 (Uniprot:Q9GS24) (protein, listed as Giardia intestinalis)
chain: MFGSFVLAGVLVQIAWAGKATERAQEAQCADNTNCAAEACNVLIGGKLYCSRCNTGFVPINGQCADKEGATDKCKDGSGGDTADQTCGQCAEQTFMYKGGCYEAAQQPGQTMCQAADAGVCTQAAQGYFVPPGADASHQSVIPCGDEEEITVKNDKKYKGVLHCTRCNAPTEAADANAKAATCTACQADRYLKTAKDQATSCVTEQECTGTEGFFAKNGGTKTCEACAETCKTCKTEAAKCTSCKDDKPYLKKDNGSDTGTCVTEAECKTGNTHYPDDTEPKTCKTCAEGTSDGCATCEKGADGAVACKTCGNQKKVQPNKKGCVENCPSNSNDKKTPGTCECVEGYVPEEAGTGCTKKPDPPAAPCNTPGCKTCSEPKTSKEVCTECEDPKALTPTGQCIYGCEHLEGYYEGTSEGGKKACKKCEVENCLLCNENGQCETCKDGYYKKETACAKCDTSCKTCANGEPNGCTSCEAKKALSYEGEGNTGTCKSECKPGTNNCEKCELTVDGTAYCSKCKDANQFPQNGVCSAAAGKAITCTTKGTGVCDKCANGLLRMNGGCYETTKFPGKSVCEEAASAGDTCQVEAPGYHLNNNDLVTCSAGCKTCTSNTVCTECMDGYAKTDNKCTKCATGCATCAGSASNCDTCSTGYYKYKNACVSCTESNSDKTITGVANCANCAPPLNNKGSVLCYLVQSGENTNKSGLSAGAIAGIAVAVIIVVGGLVGFLCWWFMCRGKA
- VSP epitopes after incubation at variable pHs [7]: remained intact
- VSP survival of exposure to trypsin [8]: able to survive exposure to trypsin

B2: VSP1267: Giardia variant-specific surface protein expressed by clone WB-1267 (Uniprot:Q07317) (protein, listed as Giardia intestinalis)
chain: MLLIAFYLILSTFAVDCKNSGNSCEAGQCDTIGDTEICMQCNQGKVPINGICTAHSEEAVTNAGCKKNGGTNIEESDKVCGQCGNGYFLHKGGCYKIGEAPGNLICADEASNPGARTAGVCGACKDGYYKNSDAVATADSCIACEDANCATCGGAGENKCTKCIDGYFVGATGNEGGCIKCDATTGPNSYKGVAGCAKCEKPKNAGPAKCIECAADYLKTEADEQTSCVSEAVCREGKTHFPTTDSAGGNKKVCVSCGTTNNGGIENCGECTSKESAARAGTEITCTKCSSNNLSPLGDACLTDCPAGTYAVSGDSGSVCKPCHNTCAGCQTDDRETSCTACYPGYSLLYESNGATGRCVKECTGAFITNCADGQCTANVGGAKYCTQCKDGYAPIDGICTAVAAAGRDVSVCTATGGKCTACTGNYALLSGGCYNTQTLPGKSVCKAVANSNDGKCKTCANGQAPDPATNFCPLCDSTCAECSTKNDADACTKCFPGYYKTGNKCIKCTESSNNGKKIDGIPDCLSCEAPINTGPVICYVKTDGTSDDNSGNGGDSTNKSGLSTGAIAGISVAAFVVVAGLVGFLCWWFICRGKA
- VSP survival of exposure to trypsin [8]: able to survive exposure to trypsin

B3: VSPH7: Giardia variant-specific surface protein of the GS/M isolate, clone GS-H7 (Uniprot: Q24992) (protein, listed as Giardia intestinalis)
chain: MFLLINCLIASTLAGACSTTQANCVAEKCEMVGETEICTQCKQNYVPINGVCEAAASSNTKCQKASADEASDQTCGKCLSTTFMYKGGCYDKTGNLGRIICKTEGSDAGKCGACNDEKGFFDNPDAANNVDSCISCGDATGVTIPGSSTKTYKGVAGCAKCTKPSQISENTGTKEATCTECNANLYLKAVSSPTSATSCVSAEDCKTGYFPTTDTTDSKKKCLTCSTADKGGIDGCSACELLPSTTRASTVLISCSACSTNNLSPLKNECMQDCPAGTYADSNVCKPCHTSCASCKGDNTESSCTACYPGSVLSYGTDNTKGTCIAECTGKYLENCADGQCTATIAGSKYCSKCKSGFVPVNGLCVSAETARAAPPGSTPDKTNGVCTACTEKYFLESGGCYQAEKFPGNTLCTTADAGKCTTCANGQDKDSNGSCPACPTNCASCAKDNTKTCNKCFSGYYLDTAKACKKCSETSGNIQGVENCISCLAPTSPQSSTPVTCYVKTSGGGSGDNSTGGDSGPNLSSGAIAGISVAVIVVVGGLVGFLCWWFVCRGKA
- VSP epitopes after incubation at variable pHs [7]: remained intact
- VSP survival of exposure to trypsin [8]: able to survive exposure to trypsin
